# Target: T1, B3GNT2 (Homo sapiens, UniProt Q9NY97)
# T1 construct: The respective ORFs of candidate genes [CD274 (NM_014143), MCL1 (NM_021960), JUNB (NM_002229), and B3GNT2 (NM_006577)] were synthesized; expressed in transfected cells; host or cells: A375 melanoma cells (lentiviral ORF overexpression)
# T1 sequence (Q9NY97 1-397): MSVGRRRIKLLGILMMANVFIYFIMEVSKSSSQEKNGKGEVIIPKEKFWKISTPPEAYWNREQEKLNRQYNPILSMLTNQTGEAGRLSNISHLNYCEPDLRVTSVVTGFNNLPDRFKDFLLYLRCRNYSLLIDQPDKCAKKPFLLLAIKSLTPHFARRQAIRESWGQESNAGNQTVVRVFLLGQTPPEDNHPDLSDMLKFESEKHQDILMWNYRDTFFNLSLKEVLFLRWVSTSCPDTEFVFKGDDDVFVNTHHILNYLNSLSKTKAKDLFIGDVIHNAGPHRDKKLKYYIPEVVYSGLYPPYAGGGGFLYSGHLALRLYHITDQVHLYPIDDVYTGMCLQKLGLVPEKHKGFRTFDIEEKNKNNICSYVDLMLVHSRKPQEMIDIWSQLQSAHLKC
# Assay: Co-IP of FLAG-tagged B3GNT2 followed by mass spectrometry
# Type: cell-based
# Design: C-term IgG / C-term flag: unit not given here
# Method in brief: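 FLAG-tagged B3GNT2 immunoprecipitated from cell lysate (HEPES, 1% Triton X-100, 150 mM NaCl) with anti-FLAG versus […], overnight at 4° C, then captured on Protein A/G magnetic beads for 4 h. Two biological replicates per condition. Peptides fractionated and analyzed by nano-LC on an Orbitrap Elite in data-dependent mode.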
# [1] = Co-IP followed by mass spectrometry of B3GNT2, C-term tag, FLAG pull-down
# [2] = Co-IP followed by mass spectrometry of B3GNT2, C-term tag, IgG pull-down
# [3] = Co-IP followed by mass spectrometry of B3GNT2, N-term tag, FLAG pull-down
# [4] = Co-IP followed by mass spectrometry of B3GNT2, N-term tag, IgG pull-down
Molecule,C-term flag [1],C-term IgG [2],N-term FLAG [3],N-term IgG [4],"C-term flag (Co-IP with FLAG antibody, C-terminally FLAG-tagged B3GNT2, mass spectrometry count, unit not given)","N-term FLAG (Co-IP with FLAG antibody, N-terminally FLAG-tagged B3GNT2, mass spectrometry count, unit not given)","C-term IgG (Co-IP with IgG control antibody, C-terminally FLAG-tagged B3GNT2, mass spectrometry count, unit not given)","N-term IgG (Co-IP with IgG control antibody, N-terminally FLAG-tagged B3GNT2, mass spectrometry count, unit not given)"
YTHDF2 (protein) SASSLLEQRPKGQGNKVQNGSVHQKDGLNDDDFEPYLSPQARPNNAYTAMSDSYLPSYYSPSIGFSYSLGEAAWSTGGDTAMPYLTSYGQLSNGEPHFLPDAMFGQPGALGSTPFLGQHGFNFFPSGIDFSAWGNNSSQGQSTQSSGYSSNYAYAPSSLGGAMIDGQSAFANETLNKAPGMNTIDQGMAALKLGSTEVASNVPKVVGSAVGSGSITSNIVASNSLPPATIAPPKPASWADIASKPAKQQPKLKTKNGIAGSSLPPPPIKHNMDIGTWDNKGPVAKAPSQALVQNIGQPTQGSPQPVGQQANNSPPVAQASVGQQTQPLPPPPPQPAQLSVQQQAAQPTRWVAPRNRGSGFGHNGVDGNGVGQSQAGSGSTPSEPHPVLEKLRSINNYNPKDFDWNLKHGRVFIIKSYSEDDIHRSIKYNIWCSTEHGNKRLDAAYRSMNGKGPVYLLFSVNGSGHFCGVAEMKSAVDYNTCAGVWSQDKWKGRFDVRWIFVKDVPNSQLRHIRLENNENKPVTNSRDTQEVPLEKAKQVLKIIASYKHTTSIFDDFSHYEKRQEEEESVKKERQGRGK,4,2,5,4,–,–,–,–
S100A7 (protein) SNTQAERSIIGMIDMFHKYTRRDDKIEKPSLLTMMKENFPNFLSACDKKGTNYLADVFEKKDKNEDKKIDFSEFLSLLGDIATDYHKQSHGAAPCSGGSQ,5,3,3,2,–,–,–,–
PPFIBP1 (protein) MMSDASDMLAAALEQMDGIIAGSKALEYSNGIFDCQSPTSPFMGSLRALHLVEDLRGLLEMMETDEKEGLRCQIPDSTAETLVEWLQSQMTNGHLPGNGDVYQERLARLENDKESLVLQVSVLTDQVEAQGEKIRDLEFCLEEHREKVNATEEMLQQELLSRTSLETQKLDLMAEISNLKLKLTAVEKDRLDYEDKFRDTEGLIQEINDLRLKVSEMDSERLQYEKKLKSTKDELASLKEQLEEKESEVKRLQEKLVCKMKGEGVEIVDRDIEVQKMKKAVESLMAANEEKDRKIEDLRQCLNRYKKMQDTVVLAQGKDGEYEELLNSSSISSLLDAQGFSDLEKSPSPTPVMGSPSCDPFNTSVPEEFHTTILQVSIPSLLPATVSMETSEKSKLTPKPETSFEENDGNIILGATVDTQLCDKLLTSSLQKSSSLGNLKKETSDGEKETIQKTSEDRAPAESRPFGTLPPRPPGQDTSMDDNPFGTRKVRSSFGRGFFKIKSNKRTASAPNLAETEKETAEHLDLAGASSRPKDSQRNSPFQIPPPSPDSKKKSRGIMKLFGKLRRSQSTTFNPDDMSEPEFKRGGTRATAGPRLGWSRDLGQSNSDLDMPFAKWTKEQVCNWLMEQGLGSYLNSGKHWIASGQTLLQASQQDLEKELGIKHSLHRKKLQLALQALGSEEETNHGKLDFNWVTRWLDDIGLPQYKTQFDEGRVDGRMLHYMTVDDLLSLKVVSVLHHLSIKRAIQVLRINNFEPNCLRRRPSDENTIAPSEVQKWTNHRVMEWLRSVDLAEYAPNLRGSGVHGGLMVLEPRFNVETMAQLLNIPPNKTLLRRHLATHFNLLIGAEAQHQKRDAMELPDYVLLTATAKVKPKKLAFSNFGNLRKKKQEDGEEYVCPMELGQASGSASKKGFKPGLDMRLYEEDDLDRLEQMEDSEGTVRQIGAFSEGINNLTHMLKEDDMFKDFAARSPSASITDEDSNV,3,0,2,0,–,–,–,–

# More lines, now with the values ahead:
C-term flag [1],C-term IgG [2],N-term FLAG [3],N-term IgG [4],"C-term flag (Co-IP with FLAG antibody, C-terminally FLAG-tagged B3GNT2, mass spectrometry count, unit not given)","N-term FLAG (Co-IP with FLAG antibody, N-terminally FLAG-tagged B3GNT2, mass spectrometry count, unit not given)","C-term IgG (Co-IP with IgG control antibody, C-terminally FLAG-tagged B3GNT2, mass spectrometry count, unit not given)","N-term IgG (Co-IP with IgG control antibody, N-terminally FLAG-tagged B3GNT2, mass spectrometry count, unit not given)",Molecule
8,5,6,5,–,–,–,–,HNRNPM (protein) AAGVEAAAEVAATEIKMEEESGAPGVPSGNGAPGPKGEGERPAQNEKRKEKNIKRGGNRFEPYANPTKRYRAFITNIPFDVKWQSLKDLVKEKVGEVTYVELLMDAEGKSRGCAVVEFKMEESMKKAAEVLNKHSLSGRPLKVKEDPDGEHARRAMQKVMATTGGMGMGPGGPGMITIPPSILNNPNIPNEIIHALQAGRLGSTVFVANLDYKVGWKKLKEVFSMAGVVVRADILEDKDGKSRGIGTVTFEQSIEAVQAISMFNGQLLFDRPMHVKMDERALPKGDFFPPERPQQLPHGLGGIGMGLGPGGQPIDANHLNKGIGMGNIGPAGMGMEGIGFGINKMGGMEGPFGGGMENMGRFGSGMNMGRINEILSNALKRGEIIAKQGGGGGGGSVPGIERMGPGIDRLGGAGMERMGAGLGHGMDRVGSEIERMGLVMDRMGSVERMGSGIERMGPLGLDHMASSIERMGQTMERIGSGVERMGAGMGFGLERMAAPIDRVGQTIERMGSGVERMGPAIERMGLSMERMVPAGMGAGLERMGPVMDRMATGLERMGANNLERMGLERMGANSLERMGLERMGANSLERMGPAMGPALGAGIERMGLAMGGGGGASFDRAIEMERGNFGGSFAGSFGGAGGHAPGVARKACQIFVRNLPFDFTWKMLKDKFNECGHVLYADIKMENGKSKGCGVVKFESPEVAERACRMMNGMKLSGREIDVRIDRNA
–,–,–,–,7,29,0,0,PHGDH (protein) AFANLRKVLISDSLDPCCRKILQDGGLQVVEKQNLSKEELIAELQDCEGLIVRSATKVTADVINAAEKLQVVGRAGTGVDNVDLEAATRKGILVMNTPNGNSLSAAELTCGMIMCLARQIPQATASMKDGKWERKKFMGTELNGKTLGILGLGRIGREVATRMQSFGMKTIGYDPIISPEVSASFGVQQLPLEEIWPLCDFITVHTPLLPSTTGLLNDNTFAQCKKGVRVVNCARGGIVDEGALLRALQSGQCAGAALDVFTEEPPRDRALVDHENVISCPHLGASTKEAQSRCGEEIAVQFVDMVKGKSLTGVVNAQALTSAFSPHTKPWIGLAEALGTLMRAWAGSPKGTIQVITQGTSLKNAGNCLSPAVIVGLLKEASKQADVNLVNAKLLVKEAGLNVTTSHSPAAPGEQGFGECLLAVALAGAPYQAVGLVQGTTPVLQGLNGAVFRPEVPLRRDLPLLLFRTQTSDPAMLPTMIGLLAEAGVRLLSYQTSLVSDGETWHVMGISSLLPSLEAWKQHVTEAFQFHF
3,0,2,0,–,–,–,–,TELO2 (protein) MEPAPSEVRLAVREAIHALSSSEDGGHIFCTLESLKRYLGEMEPPALPREKEEFASAHFSPVLRCLASRLSPAWLELLPHGRLEELWASFFLEGPADQAFLVLMETIEGAAGPSFRLMKMARLLARFLREGRLAVLMEAQCRQQTQPGFILLRETLLGKVVALPDHLGNRLQQENLAEFFPQNYFRLLGEEVVRVLQAVVDSLQGGLDSSVSFVSQVLGKACVHGRQQEILGVLVPRLAALTQGSYLHQRVCWRLVEQVPDRAMEAVLTGLVEAALGPEVLSRLLGNLVVKNKKAQFVMTQKLLFLQSRLTTPMLQSLLGHLAMDSQRRPLLLQVLKELLETWGSSSAIRHTPLPQQRHVSKAVLICLAQLGEPELRDSRDELLASMMAGVKCRLDSSLPPVRRLGMIVAEVVSARIHPEGPPLKFQYEEDELSLELLALASPQPAGDGASEAGTSLVPATAEPPAETPAEIVDGGVPQAQLAGSDSDLDSDDEFVPYDMSGDRELKSSKAPAYVRDCVEALTTSEDIERWEAALRALEGLVYRSPTATREVSVELAKVLLHLEEKTCVVGFAGLRQRALVAVTVTDPAPVADYLTSQFYALNYSLRQRMDILDVLTLAAQELSRPGCLGRTPQPGSPSPNTPCLPEAAVSQPGSAVASDWRVVVEERIRSKTQRLSKGGPRQGPAGSPSRFNSVAGHFFFPLLQRFDRPLVTFDLLGEDQLVLGRLAHTLGALMCLAVNTTVAVAMGKALLEFVWALRFHIDAYVRQGLLSAVSSVLLSLPAARLLEDLMDELLEARSWLADVAEKDPDEDCRTLALRALLLLQRLKNRLLPPASP

# From patent US20240261333A1, “NOVEL TARGETS FOR ENHANCING ANTI-TUMOR IMMUNITY” (THE BROAD INSTITUTE, INC., priority 2021, published 2024)
